Patent publication US20210101970A1 (Pfizer, published 2021)
Positions count from the first letter of the chain named.

Legend:
XC278 = target: T1, XC278 (human, UniProt P32302 2-372); assay: flow cytometry on HEK-293T cells transiently expressing the FLAG-tagged mutein; ratio of gMFI of the antibody to gMFI of anti-FLAG PE
T1 construct: also called hCXCR5 L11T
T1 sequence: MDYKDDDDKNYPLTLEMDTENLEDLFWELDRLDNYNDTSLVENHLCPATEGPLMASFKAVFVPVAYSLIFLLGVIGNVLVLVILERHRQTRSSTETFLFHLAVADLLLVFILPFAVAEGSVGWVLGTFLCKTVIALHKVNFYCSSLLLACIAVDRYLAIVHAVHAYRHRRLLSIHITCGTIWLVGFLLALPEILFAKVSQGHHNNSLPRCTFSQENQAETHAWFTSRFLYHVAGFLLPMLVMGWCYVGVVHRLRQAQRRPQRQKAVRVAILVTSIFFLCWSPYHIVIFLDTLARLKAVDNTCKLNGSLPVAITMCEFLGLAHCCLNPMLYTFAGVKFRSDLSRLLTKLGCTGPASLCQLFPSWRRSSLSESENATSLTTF
Protocol: (§1) The cells were analyzed by flow cytometry using an Accuri (BD Biosciences Franklin Lakes, N.J.). The geometric mean fluorescence intensity (gMFI) was determined and the ratio for the gMFI of each CXCR5 antibody and anti-flag was calculated.

CXCR1 = target: T2, CXCR1 (human, UniProt P25024 1-350); assay: flow cytometry (GMFI) on fixed CXCR1 cells, chimeric antibody, goat anti-human PE
T2 construct: whole, on cells
T2 sequence (looked up): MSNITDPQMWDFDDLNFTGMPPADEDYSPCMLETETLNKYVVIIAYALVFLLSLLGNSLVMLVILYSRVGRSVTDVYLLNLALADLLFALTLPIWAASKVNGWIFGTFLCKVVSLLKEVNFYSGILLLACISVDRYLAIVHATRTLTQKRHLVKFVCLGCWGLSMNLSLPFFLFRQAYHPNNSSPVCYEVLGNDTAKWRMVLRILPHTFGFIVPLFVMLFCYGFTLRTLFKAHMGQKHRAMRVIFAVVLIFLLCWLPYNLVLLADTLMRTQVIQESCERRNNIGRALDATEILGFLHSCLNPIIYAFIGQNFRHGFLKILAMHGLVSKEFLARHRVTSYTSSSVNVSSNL
Protocol: To determine the specificity of the antibodies for CXCR5, the binding of the antibodies to cells expressing other […] was assessed. Briefly, FlowCellect chemokine receptor cell lines expressing CXCR1, CXCR2, or CXCR3 (EMD Millipore, Billerica, Mass.), and Jurkats (ATCC, Manassas, Va.), which express CXCR4, were stained with 5 μg/ml or 10 μg/ml of each anti-CXCR5 chimeric antibody. The cells were then incubated with goat anti-human conjugated with PE (Southern Biotech, Birmingham, Ala.) prior to analysis by flow cytometry using a FACSVerse Analyzer (BD Biosciences, Franklin Lakes, N.J.).

XC276 = target: T3, XC276 (human, UniProt P32302 2-372); assay: flow cytometry on HEK-293T cells transiently expressing the FLAG-tagged mutein; ratio of gMFI of the antibody to gMFI of anti-FLAG PE
T3 construct: also called hCXCR5 D10G
T3 sequence: T1 sequence with D18G, T19L
Protocol: as §1

XC277 = target: T4, XC277 (human, UniProt P32302 2-372); assay: as above
T4 construct: also called hCXCR5 SI(insertion)
T4 sequence: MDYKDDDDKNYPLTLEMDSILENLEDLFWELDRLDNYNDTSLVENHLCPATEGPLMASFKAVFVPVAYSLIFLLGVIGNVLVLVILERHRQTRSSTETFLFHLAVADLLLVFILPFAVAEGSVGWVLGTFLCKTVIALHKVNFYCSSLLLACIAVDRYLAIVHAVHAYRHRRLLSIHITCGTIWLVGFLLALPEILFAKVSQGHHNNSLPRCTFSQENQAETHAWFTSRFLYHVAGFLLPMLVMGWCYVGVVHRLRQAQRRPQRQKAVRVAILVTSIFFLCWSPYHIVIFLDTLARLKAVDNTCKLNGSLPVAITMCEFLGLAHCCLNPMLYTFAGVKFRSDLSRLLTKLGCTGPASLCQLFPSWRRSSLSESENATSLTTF
Protocol: as §1

human CXCR5 = target: T5, human CXCR5 (human, UniProt P32302 1-372); assay: flow cytometry on Raji cells, gMFI titration
T5 construct: also called hCXCR5; C-X-C chemokine receptor type 5
T5 sequence: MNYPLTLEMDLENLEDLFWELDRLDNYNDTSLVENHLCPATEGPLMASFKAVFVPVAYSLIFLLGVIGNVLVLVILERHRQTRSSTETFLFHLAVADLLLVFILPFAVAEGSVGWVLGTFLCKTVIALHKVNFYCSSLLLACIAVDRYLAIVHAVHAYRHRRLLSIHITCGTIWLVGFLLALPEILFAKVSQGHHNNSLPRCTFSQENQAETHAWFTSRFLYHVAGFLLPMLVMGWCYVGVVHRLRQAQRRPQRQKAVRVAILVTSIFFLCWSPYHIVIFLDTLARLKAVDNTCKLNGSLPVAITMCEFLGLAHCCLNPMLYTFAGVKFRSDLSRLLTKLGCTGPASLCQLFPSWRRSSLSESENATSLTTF
Protocol: The apparent affinity of antibody binding to Raji cells was calculated as the EC₅₀ of equilibrium binding titration curves in which the geometric mean fluorescence intensity (gMFI) of the antigen binding population was quantified by flow cytometry and the results are shown in Table 2.

B1: Afucosyl humanized 11G2 154/155 (antibody, human IgG1, kappa, V domains shown)
VH: EVQLVESGGGLVQPGGSLRLSCAASGFTFTDFYMSWVRQAPGKGLEWVGFIRNKANGYTTEYSASVKGRFTISRDNAKNSLYLQMNSLRAEDTAVYYCARVYGSTLHYWGQGTLVTVSS
VL: DIQMTQSPSSLSASVGDRVTITCRASESVEYHGTSLMHWYQQKPGKAPKLLIYAASNVESGVPSRFSGSGSGTDFTLTISSLQPEDFATYYCQQSRKVPWTFGQGTKVEIKR
modifications: afucosylated Fc glycan (Asn297)
notes: also called afucosyl h11G2 XC154/XC155; afucosylated h11G2 VL XC154/VH XC155
Question: Does B1 bind (XC278)?
Answer: Result: no binding (tested: 1 or 3 µg/ml (not on the sheet))

B2: Chimeric 11G2 (antibody, human IgG1, kappa, V domains shown)
VH: EVKLVESGGGLVQPGGSLRLSCATSGFTFTDFYMSWVRQPPGRALEWLGFIRNKANGYTTEYSASVKGRFTISRDNSQSILYLQMNTLRAGDSATYYCVRVYGSTLHYWGQGTILTVSS
VL: DVVVTQSPDSLAVSLGQRATISCRASESVEYHGTSLMHWYQQKPGQPPKLLIYAASNVESGVPARFSGSGSGTDFSLNIHPVEEGDIAMYFCQQSRKVPWTFGGGTKLEIKR
notes: mouse V regions on human IgG1/kappa; also called 11G2 (chimeric)
Question: Does B2 bind (CXCR1)?
Answer: Result: no binding (tested: 5 or 10 µg/ml (not on the sheet))

B3: 2C9 (reference antibody) (antibody, human IgG1, kappa, V domains shown)
VH: EVQLVESGGGLVKPGGSLRLSCAASGFTFSTNAMNWVRQAPGKGLERVARIRSKSNNYATYYADSVKDRFTISRDDSKNTLYLQMNSLKTEDTAVYYCVTMIPFAYWGQGTLVTVSS
VL: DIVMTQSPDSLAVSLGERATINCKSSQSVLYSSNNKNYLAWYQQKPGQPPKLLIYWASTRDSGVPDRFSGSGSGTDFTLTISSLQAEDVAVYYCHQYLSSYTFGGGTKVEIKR
notes: fucosylated
Question: Does B3 bind (XC276)?
Answer: Result: no binding (tested: 1 or 3 µg/ml (not on the sheet))

Question: Does B3 bind (XC277)?
Answer: Result: no binding (tested: 1 or 3 µg/ml (not on the sheet))

Question: And the EC50 (human CXCR5)?
Answer: The EC50 was 210 pM.
